B1: Epsin-1 (Saccharomyces cerevisiae), Q12518 (parent)
chain: MSKQFVRSAKNLVKGYSSTQVLVRNATSNDNHQVSKDSLIELAEKSYDSADFFEIMDMLDKRLNDKGKYWRHIAKALTVIDYLIRFGSENCVLWCRENLYIIKTLKEFRHEDDEGIDQGQIVRVKAKELTALLSDDERLNEERNMNIKGRNRKGRRRRGTGRSDENDDDLQRAISASRLTAEEDERRRKQDEDYETALQLSKEEEELKRLQDLQRMQQQQGQQQLQQPMYYDIFGNPITPEEYAQFQLQQQQQQQQQQLQQQPMYYDVFGNPITPEELAQFQQQQQLQEQQYLASMQQQQQAMSNNPFAKSEQSSSSPKRNQLVAASSPQQLQQQKQQEPLIQNRTGNQSMTDKYSKLNELLATGTGIDTFGNVGEARIPAQHTKTGTFINSQGTGYRQVSDDPNHNPFLNSQYTGLPSTSVVPTQTGYGFGNQSQQQSQNNGSNNRGYTLIDL
partner: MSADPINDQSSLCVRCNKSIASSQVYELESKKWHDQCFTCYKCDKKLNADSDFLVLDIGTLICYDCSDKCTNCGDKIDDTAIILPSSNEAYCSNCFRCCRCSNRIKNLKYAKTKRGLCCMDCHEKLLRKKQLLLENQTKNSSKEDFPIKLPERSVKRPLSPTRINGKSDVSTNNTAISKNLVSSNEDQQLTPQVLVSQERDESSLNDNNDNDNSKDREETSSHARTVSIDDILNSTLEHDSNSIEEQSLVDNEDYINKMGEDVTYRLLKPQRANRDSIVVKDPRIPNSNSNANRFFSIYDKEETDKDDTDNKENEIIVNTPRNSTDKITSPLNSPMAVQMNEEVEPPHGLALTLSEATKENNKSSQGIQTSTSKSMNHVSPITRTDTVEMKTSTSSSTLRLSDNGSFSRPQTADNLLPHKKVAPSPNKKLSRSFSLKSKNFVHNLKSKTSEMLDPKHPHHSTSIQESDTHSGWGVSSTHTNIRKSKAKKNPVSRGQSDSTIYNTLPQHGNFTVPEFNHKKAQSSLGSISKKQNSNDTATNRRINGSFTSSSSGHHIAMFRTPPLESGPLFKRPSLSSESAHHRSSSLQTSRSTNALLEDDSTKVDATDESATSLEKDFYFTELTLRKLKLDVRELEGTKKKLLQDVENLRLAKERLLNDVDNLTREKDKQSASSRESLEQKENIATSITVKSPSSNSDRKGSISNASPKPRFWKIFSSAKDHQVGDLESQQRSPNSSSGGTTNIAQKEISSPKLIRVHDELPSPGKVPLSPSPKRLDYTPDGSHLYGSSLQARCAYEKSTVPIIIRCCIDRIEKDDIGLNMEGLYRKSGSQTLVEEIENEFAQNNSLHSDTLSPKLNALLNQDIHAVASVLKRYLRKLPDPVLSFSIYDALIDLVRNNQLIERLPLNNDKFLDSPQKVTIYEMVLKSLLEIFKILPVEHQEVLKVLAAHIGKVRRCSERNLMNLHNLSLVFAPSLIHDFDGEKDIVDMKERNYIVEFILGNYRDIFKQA

Variants of B1 are the subject of one test. To be noted: with rga2_yeast RGA2, Q06407.
As to MSKQFVRSAKNLVKGYSSTQVLVRNATSNDNHQVSKDSLIELAEKSYDSADFFEIMDMLDKRLNDKGKYWRHIAKALTVIDYLIRFGSENCVLWCRENLRIIKTLKEFRHEDDEGIDQGQIVRVKAKELTALLSDDERLNEERNMNIKGRNRKGRRRRGTGRSDENDDDLQRAISASRLTAEEDERRRKQDEDYETALQLSKEEEELKRLQDLQRMQQQQGQQQLQQPMYYDIFGNPITPEEYAQFQLQQQQQQQQQQLQQQPMYYDVFGNPITPEELAQFQQQQQLQEQQYLASMQQQQQAMSNNPFAKSEQSSSSPKRNQLVAASSPQQLQQQKQQEPLIQNRTGNQSMTDKYSKLNELLATGTGIDTFGNVGEARIPAQHTKTGTFINSQGTGYRQVSDDPNHNPFLNSQYTGLPSTSVVPTQTGYGFGNQSQQQSQNNGSNNRGYTLIDL [Y100R], the “effect of a mutation on the interaction” value is “disrupting interaction strength”.

Another test covers variants of B1. To be noted: with rga2_yeast RGA2, Q06407. This is another data set of the same source.
Consider MSKQFVRSAKNLVKGYSSTQVLVRNATSNDNHQVSKDSLIELAEKSYDSADFFEIMDMLDKRLNDKGKYWRHIAKALTVIDYLIRFGSENCVLWCRENLYIIKDLKEFRHEDDEGIDQGQIVRVKAKELTALLSDDERLNEERNMNIKGRNRKGRRRRGTGRSDENDDDLQRAISASRLTAEEDERRRKQDEDYETALQLSKEEEELKRLQDLQRMQQQQGQQQLQQPMYYDIFGNPITPEEYAQFQLQQQQQQQQQQLQQQPMYYDVFGNPITPEELAQFQQQQQLQEQQYLASMQQQQQAMSNNPFAKSEQSSSSPKRNQLVAASSPQQLQQQKQQEPLIQNRTGNQSMTDKYSKLNELLATGTGIDTFGNVGEARIPAQHTKTGTFINSQGTGYRQVSDDPNHNPFLNSQYTGLPSTSVVPTQTGYGFGNQSQQQSQNNGSNNRGYTLIDL [T104D], for which the “effect of a mutation on the interaction” value is recorded as “disrupting interaction strength”.
With MSKQFVRSAKNLVKGYSSTQVLVRNATSNDNHQVSKDSLIELAEKSYDSADFFEIMDMLDKRLNDKGKYWRHIAKALTVIDYLIRFGSENCVLWCRENLRIIKDLKEFRHEDDEGIDQGQIVRVKAKELTALLSDDERLNEERNMNIKGRNRKGRRRRGTGRSDENDDDLQRAISASRLTAEEDERRRKQDEDYETALQLSKEEEELKRLQDLQRMQQQQGQQQLQQPMYYDIFGNPITPEEYAQFQLQQQQQQQQQQLQQQPMYYDVFGNPITPEELAQFQQQQQLQEQQYLASMQQQQQAMSNNPFAKSEQSSSSPKRNQLVAASSPQQLQQQKQQEPLIQNRTGNQSMTDKYSKLNELLATGTGIDTFGNVGEARIPAQHTKTGTFINSQGTGYRQVSDDPNHNPFLNSQYTGLPSTSVVPTQTGYGFGNQSQQQSQNNGSNNRGYTLIDL [Y100R;T104D], the “effect of a mutation on the interaction” value is recorded as “disrupting interaction strength”.

The record behind these values is IntAct's records for PubMed 16537494.
